In patent US20090311282A1:
Blank lines part the entries; values can stand above or below the substance they belong to.

Experiments:
[1] = target: GDF8 protein (R&D Systems Inc., Minneapolis, Minn.) (UniProt O14793); experiment: cell-based or functional assay
[2] = target: DJ3 peptide (GDF8 residues 297-316) (human); experiment: ELISA, peptide coated 500 ng/well; MAB 788 10 mg/ml diluted 1:80
[3] = target: DJ1 peptide (GDF8 residues 267-286) (human); experiment: as above
[4] = target: DJ4 peptide (GDF8 residues 312-331) (human); experiment: as above
[5] = target: DJ5 peptide (GDF8 residues 327-346) (human); experiment: as above
[6] = target: DJ7 peptide (GDF8 residues 357-375) (human); experiment: as above
[7] = target: DJ2 peptide (GDF8 residues 282-301) (human); experiment: as above
[8] = target: DJ6 peptide (GDF8 residues 342-361) (human); experiment: as above
[9] = target: purified GDF8 prohormone with C-terminal FLAG epitope (GDF8 prohormone-FLAG fusion protein) (human) (UniProt O14793); experiment: ELISA, purified GDF8 prohormone coated 250 ng/well; MAB 788 10 mg/ml diluted 1:40
[10] = target: purified GDF8 prohormone with C-terminal FLAG epitope (GDF8 prohormone-FLAG fusion protein) (human) (UniProt O14793); experiment: ELISA, purified GDF8 prohormone coated 250 ng/well; MAB 788 10 mg/ml diluted 1:80
[11] = target: purified GDF8 prohormone with C-terminal FLAG epitope (GDF8 prohormone-FLAG fusion protein) (human) (UniProt O14793); experiment: ELISA, purified GDF8 prohormone coated 250 ng/well; MAB 788 10 mg/ml diluted 1:20
[12] = target: DJ3 peptide (GDF8 residues 297-316) (human); experiment: ELISA, peptide coated 500 ng/well; MAB 788 10 mg/ml diluted 1:40
[13] = target: DJ1 peptide (GDF8 residues 267-286) (human); experiment: as above
[14] = target: DJ4 peptide (GDF8 residues 312-331) (human); experiment: as above
[15] = target: DJ5 peptide (GDF8 residues 327-346) (human); experiment: as above
[16] = target: DJ7 peptide (GDF8 residues 357-375) (human); experiment: as above
[17] = target: DJ2 peptide (GDF8 residues 282-301) (human); experiment: as above
[18] = target: DJ6 peptide (GDF8 residues 342-361) (human); experiment: as above
[19] = target: DJ3 peptide (GDF8 residues 297-316) (human); experiment: ELISA, peptide coated 500 ng/well; MAB 788 10 mg/ml diluted 1:20
[20] = target: DJ1 peptide (GDF8 residues 267-286) (human); experiment: as above
[21] = target: DJ4 peptide (GDF8 residues 312-331) (human); experiment: as above
[22] = target: DJ5 peptide (GDF8 residues 327-346) (human); experiment: as above
[23] = target: DJ7 peptide (GDF8 residues 357-375) (human); experiment: as above
[24] = target: DJ2 peptide (GDF8 residues 282-301) (human); experiment: as above
[25] = target: DJ6 peptide (GDF8 residues 342-361) (human); experiment: as above

Chain of DJ1 peptide (GDF8 residues 267-286) (human) (peptide, as listed by the source): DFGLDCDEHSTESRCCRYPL
Chain of DJ2 peptide (GDF8 residues 282-301) (human) (peptide, as listed by the source): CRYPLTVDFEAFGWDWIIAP
Chain of DJ7 peptide (GDF8 residues 357-375) (human) (peptide, as listed by the source): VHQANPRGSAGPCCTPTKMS
Chain of DJ3 peptide (GDF8 residues 297-316) (human) (peptide, as listed by the source): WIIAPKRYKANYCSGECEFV
Chain of DJ6 peptide (GDF8 residues 342-361) (human) (peptide, as listed by the source): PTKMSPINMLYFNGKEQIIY
Chain of DJ4 peptide (GDF8 residues 312-331) (human) (peptide, as listed by the source): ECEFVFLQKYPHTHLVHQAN

% Inhibition of GDF8 Activity (250 µg IgG), A204 CAGA-luciferase transcriptional activation assay [1]: 0%
Substance: normal goat IgG (negative control purified from non-immunized goat sera) (antibody)

OD 405/minute × 1000 (OD 405/minute × 1000) [2]: 0 | OD 405/minute × 1000 (OD 405/minute × 1000) [3]: 0 | OD 405/minute × 1000 (OD 405/minute × 1000) [4]: 0 | OD 405/minute × 1000 (OD 405/minute × 1000) [5]: 102 | OD 405/minute × 1000 (OD 405/minute × 1000) [6]: 0 | OD 405/minute × 1000 (OD 405/minute × 1000) [7]: 0 | OD 405/minute × 1000 (OD 405/minute × 1000) [8]: 0 | OD 405/minute × 1000 (OD 405/minute × 1000) [9]: 127 | % Inhibition of GDF8 Activity (0.1 µg IgG), A204 CAGA-luciferase transcriptional activation assay [1]: 0% | % Inhibition of GDF8 Activity (1.8 µg IgG), A204 CAGA-luciferase transcriptional activation assay [1]: 0% | % Inhibition of GDF8 Activity (3.1 µg IgG), A204 CAGA-luciferase transcriptional activation assay [1]: 7% | % Inhibition of GDF8 Activity (6.3 µg IgG), A204 CAGA-luciferase transcriptional activation assay [1]: 17% | % Inhibition of GDF8 Activity (12.5 µg IgG), A204 CAGA-luciferase transcriptional activation assay [1]: 47% | OD 405/minute × 1000 (OD 405/minute × 1000) [10]: 132 | OD 405/minute × 1000 (OD 405/minute × 1000) [11]: 132 | OD 405/minute × 1000 (OD 405/minute × 1000) [12]: 0 | OD 405/minute × 1000 (OD 405/minute × 1000) [13]: 0 | OD 405/minute × 1000 (OD 405/minute × 1000) [14]: 0 | OD 405/minute × 1000 (OD 405/minute × 1000) [15]: 118 | OD 405/minute × 1000 (OD 405/minute × 1000) [16]: 0 | OD 405/minute × 1000 (OD 405/minute × 1000) [17]: 0 | OD 405/minute × 1000 (OD 405/minute × 1000) [18]: 0 | OD 405/minute × 1000 (OD 405/minute × 1000) [19]: 0 | OD 405/minute × 1000 (OD 405/minute × 1000) [20]: 4 | OD 405/minute × 1000 (OD 405/minute × 1000) [21]: 0 | OD 405/minute × 1000 (OD 405/minute × 1000) [22]: 133 | OD 405/minute × 1000 (OD 405/minute × 1000) [23]: 0 | OD 405/minute × 1000 (OD 405/minute × 1000) [24]: 0 | OD 405/minute × 1000 (OD 405/minute × 1000) [25]: 0
Substance: Rat monoclonal antibody 788 (R&D Systems Inc., Cat. No. MAB788)
